Measured values from patent US20220395579A1 (Daiichi Sankyo, published 2022).
Residue numbers refer to the chain shown, from its start. Each block holds one binder with its values, some of them ahead of it.

What was measured:
human CLDN3 = biological target: T1, human CLDN3 (human, UniProt O15551 1-220); assay: flow cytometry on 293T cells transiently transfected with human CLDN3
T1 construct: whole, on cells; Transfection was confirmed with an anti-FLAG antibody, so the construct may carry a tag
T1 sequence (looked up): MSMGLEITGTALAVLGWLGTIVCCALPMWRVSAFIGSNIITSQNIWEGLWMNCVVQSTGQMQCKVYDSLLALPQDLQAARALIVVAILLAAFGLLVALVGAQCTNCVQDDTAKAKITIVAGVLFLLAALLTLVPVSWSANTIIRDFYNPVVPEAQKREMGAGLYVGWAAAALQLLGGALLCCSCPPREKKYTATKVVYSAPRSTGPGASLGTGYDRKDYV

human CLDN6 [1] = biological target: T2, human CLDN6 (human, UniProt P56747 1-220); assay: flow cytometry on 293T cells transiently transfected with human CLDN6
T2 construct: In the flow cytometry it was expressed on 293T cells from human CLDN6/pCMV-Entry bought from OriGene; It was also expressed on CHO-K1 cells by cDNA transfection, and the endogenous protein was immunoprecipitated from NTERA-2 cell lysate; also called claudin-6; hCLDN6
T2 sequence: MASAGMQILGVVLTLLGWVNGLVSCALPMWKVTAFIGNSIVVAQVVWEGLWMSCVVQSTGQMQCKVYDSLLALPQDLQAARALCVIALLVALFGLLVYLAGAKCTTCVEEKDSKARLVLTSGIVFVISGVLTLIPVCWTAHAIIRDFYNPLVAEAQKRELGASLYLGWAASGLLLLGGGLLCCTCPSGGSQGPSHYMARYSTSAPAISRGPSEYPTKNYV
Description: (§1) The binding activity of the humanized anti-CLDN6 antibody produced in Example 136 to human CLDN6 and its family molecules, CLDN3, CLDN4, and CLDN9, was evaluated by using a flow cytometry method. […] The cells were washed with Dulbecco's phosphate buffered saline (Sigma-Aldrich Co. LLC) containing 5% fetal bovine serum (Hyclone) (hereinafter, referred to as 5% FBS-containing PBS), and FITC AffiniPureF (ab′)₂ Fragment Goat Anti-Human IgG (H+L) (Jackson ImmunoResearch Laboratories Inc.) 150-fold diluted with 5% FBS-containing PBS was then added thereto, and the cells were suspended and left to stand at 4° C. for 30 minutes. After washing with 5% FBS-containing PBS, detection was carried out by using a flow cytometer (FC500; Beckman Coulter, Inc.). Data analysis was carried out by using FlowJo (Tree Star, Inc.), and mean fluorescence intensity (MFI) of FITC, which indicates the amount of the binding antibody, was calculated. […] In each graph in FIG. 42, the abscissa represents antibody concentrations and the ordinate represents MFI.

human CLDN4 = biological target: T3, human CLDN4 (human, UniProt O14493 1-209); assay: flow cytometry on 293T cells transiently transfected with human CLDN4
T3 construct: whole, on cells; Transfection was confirmed with an anti-FLAG antibody, so the construct may carry a tag
T3 sequence (looked up): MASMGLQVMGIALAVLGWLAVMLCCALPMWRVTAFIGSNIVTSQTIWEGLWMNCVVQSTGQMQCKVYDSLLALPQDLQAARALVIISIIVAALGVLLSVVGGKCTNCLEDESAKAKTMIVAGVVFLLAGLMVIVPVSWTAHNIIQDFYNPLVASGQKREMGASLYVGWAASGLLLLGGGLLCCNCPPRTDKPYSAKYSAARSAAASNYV

human CLDN9 = biological target: T4, human CLDN9 (human, UniProt O95484 1-217); assay: flow cytometry on 293T cells transiently transfected with human CLDN9
T4 construct: It was expressed on 293T cells from human CLDN9/pCMV6-Entry bought from OriGene; also called claudin-9
T4 sequence: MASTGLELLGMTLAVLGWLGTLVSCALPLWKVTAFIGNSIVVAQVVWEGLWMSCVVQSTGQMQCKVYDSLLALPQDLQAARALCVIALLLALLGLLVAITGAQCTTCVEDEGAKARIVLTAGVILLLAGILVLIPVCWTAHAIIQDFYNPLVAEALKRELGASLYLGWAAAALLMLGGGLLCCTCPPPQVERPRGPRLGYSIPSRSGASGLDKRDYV
Description: as §1

human CLDN6 [2] = biological target: T2, human CLDN6; assay: immunoprecipitation from NTERA-2 cell lysate with the antibody, SDS-PAGE, mass spectrometry of the 18 kDa band
Description: 2×10⁷ NTERA-2 cells were collected and washed twice with PBS. The cells were collected by using a cell scraper, and centrifuged at 1500 rpm for 5 minutes. After the supernatant was removed, the cells were resuspended in 2 mL of the lysis buffer, and treated at 4° C. for 30 minutes. The resultant was centrifuged (13000 rpm, 20 minutes, 4° C.) to prepare a cell lysate. Protein G Sepharose/lysis buffer (50% slurry; 180 μL) was added to the cell lysate, and the resultant was rotated at 4° C. for 30 minutes and then centrifuged at 4° C. for 1 hour, and the supernatant was collected. […] The Protein G Sepharose was washed six times with the lysis buffer (1 mL), and then resuspended in 1×SDS sample buffer. After the suspension was treated at 100° C. for 5 minutes, the solution was collected as a sample for SDS-PAGE. SDS-PAGE was carried out in the same manner as in 2-2), and the electrophoresis gel was stained with CBB. The part corresponding to 18 kDa was cut out of the electrophoresis gel, and subjected to mass spectrometry.

human CLDN6 [3] = biological target: T2, human CLDN6; assay: FACS on CHO-K1 cells transfected with human claudin-6 cDNA

- binding result (human CLDN3): no binding (tested: 100 nM)
- binding result (human CLDN6 [1]): binds
- binding result (human CLDN4): no binding (tested: 100 nM)
- binding result (human CLDN9): binds
B4: humanized anti-CLDN6 antibody H3L3 (antibody, human IgG1, kappa, L234A L235A, V domains shown)
VH: EVQLVQSGAEVKKPGASVKVSCKTSGYTFTEYTMHWVRQAPGQGLEWMGGVNPNSGDTSYAQKFQGRVTLTVDKSTSTAYMELSSLRSEDTAVYYCARPGGYDVGYYAMDYWGQGTLVTVSS
VL: DIQMTQSPSSLSASVGDRVTITCRASQDINNYLNWYQQKPGGAVKLLIYFTSRLHSGVPSRFSGSGSGTDYTLTISSLQPEDFATYYCQQGYPLPWTFGGGTKVEIKR
notes: Heavy chain hH3 with light chain hL3; Human IgG1 LALA constant region and human kappa light chain; also called H3L3 antibody

- binding result (human CLDN3): no binding (tested: 100 nM)
- binding result (human CLDN6 [1]): binds
- binding result (human CLDN4): no binding (tested: 100 nM)
- binding result (human CLDN9): binds
B5: humanized anti-CLDN6 antibody H2L4 (antibody, human IgG1, kappa, L234A L235A, V domains shown)
VH: B4 VH with Q43K, G44S, L70I, V72A, K74T
VL: B4 VL with Y92N, P93T
notes: Human IgG1 LALA constant region and human kappa light chain; also called H2L4 antibody

- binding result (human CLDN6 [3]): binds
- binding result (human CLDN3): no binding
- binding result (human CLDN4): no binding
- binding result (human CLDN9): binds
B7: mouse anti-CLDN6 antibody C7 (antibody, V domains shown)
VH: EVQLQQSGPELVKPGASVKISCKTSGYTFTEYTMHWVQQSHGKSLEWIGGVNPNSGDTSYNQKFKGKATLTVDKSSSTAYMELRSLTSEDSAVYYCARPGGYDVGYYAMDYWGQGTSVTVSS
VL: DIQMTQTASSLSASLGDRVTISCRASQDINNYLNWYQQKPDGTVKLLIYSTSRLHSGVPSRFSGSGSGTHYSLTITHLEQEDIATYFCQQGYPLPWTFGGGTKLEIK
notes: Mouse monoclonal antibody purified from the culture supernatant of hybridoma 218C7; also called C7 antibody; 218C7

The remaining lines, values behind:

B1: humanized anti-CLDN6 antibody H1L3 (antibody, human IgG1, kappa, L234A L235A, V domains shown)
VH: B4 VH with E1Q, T24A, L70I, V72A, K74T
VL: B4 VL
notes: Heavy chain hH1 with light chain hL3; Human IgG1 LALA constant region and human kappa light chain; also called H1L3 antibody
- binding result (human CLDN3): no binding (tested: 100 nM)
- binding result (human CLDN6 [1]): binds
- binding result (human CLDN4): no binding (tested: 100 nM)
- binding result (human CLDN9): binds

B2: humanized anti-CLDN6 antibody H1L1 (antibody, human IgG1, kappa, L234A L235A, V domains shown)
VH: B4 VH with E1Q, T24A, L70I, V72A, K74T
VL: B4 VL with G42K, V44P, G100Q
notes: Heavy chain hH1 with light chain hL1; Human IgG1 LALA constant region and human kappa light chain; also called H1L1 antibody
- binding result (human CLDN3): no binding (tested: 100 nM)
- binding result (human CLDN6 [1]): binds
- binding result (human CLDN4): no binding (tested: 100 nM)
- binding result (human CLDN9): binds

B3: humanized anti-CLDN6 antibody H2L2 (antibody, human IgG1, kappa, L234A L235A, V domains shown)
VH: B4 VH with Q43K, G44S, L70I, V72A, K74T
VL: B4 VL with G42K, D70H, G100Q
notes: Heavy chain hH2 with light chain hL2; Human IgG1 LALA constant region and human kappa light chain; also called H2L2 antibody
- binding result (human CLDN3): no binding (tested: 100 nM)
- binding result (human CLDN6 [1]): binds
- binding result (human CLDN4): no binding (tested: 100 nM)
- binding result (human CLDN9): binds

B6: mouse anti-CLDN6 antibody B1 (antibody, V domains shown)
VH: B7 VH
VL: B7 VL with S50F, H77N
notes: Mouse monoclonal antibody purified from the culture supernatant of hybridoma 218B1; a mouse IgG1 was used as the control; also called B1 antibody; 218B1
- binding result (human CLDN3): no binding
- binding result (human CLDN6 [2]): binds
- binding result (human CLDN4): no binding
- binding result (human CLDN9): binds
